Assay results as given in US20230035798A1 (CAPELLA BIOSCIENCE, published 2023).

Assays:
[1] = target: T1, human LIGHT (TNFSF14), full length, membrane-bound (214E allele) (human, UniProt O43557 1-240); assay: flow cytometry, EL4-LIGHT cells
T1 construct: also called membrane LIGHT; human membrane LIGHT

[2] = target: membrane LIGHT without residues 81-84 (EL4-NC-LIGHT cells) (human, UniProt O43557 1-240); assay: cell-based or functional assay
[3] = target: T1, human LIGHT (TNFSF14), full length, …; assay: flow cytometry, HEK293FF human LIGHT cells (value given in the method)

Chain of membrane LIGHT without residues 81-84 (EL4-NC-LIGHT cells) (O43557 other isoform, or with tags, fused parts or gaps): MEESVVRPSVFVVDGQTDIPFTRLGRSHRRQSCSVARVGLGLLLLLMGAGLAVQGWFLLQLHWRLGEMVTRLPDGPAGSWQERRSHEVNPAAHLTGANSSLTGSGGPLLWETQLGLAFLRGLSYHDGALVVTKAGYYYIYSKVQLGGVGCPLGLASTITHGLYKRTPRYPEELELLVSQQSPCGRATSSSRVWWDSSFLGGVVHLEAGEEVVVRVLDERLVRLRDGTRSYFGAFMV
T1 sequence (O43557 whole entry K214E): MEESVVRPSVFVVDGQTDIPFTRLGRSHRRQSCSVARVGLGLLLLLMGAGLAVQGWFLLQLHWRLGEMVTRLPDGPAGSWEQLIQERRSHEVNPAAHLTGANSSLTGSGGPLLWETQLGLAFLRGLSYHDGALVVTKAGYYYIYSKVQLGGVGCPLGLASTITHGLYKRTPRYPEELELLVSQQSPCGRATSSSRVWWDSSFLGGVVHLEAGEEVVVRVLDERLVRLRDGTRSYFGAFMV

B1: 3D12_var4 (antibody, human IgG4, V domains shown)
VH: QVQLVQSGAEVKKPGASVKVSCKASGYTFTDSEMHWVRQAPGQGLEWMGEIDPETGGTAYAQKFQGRVTLTADKSTSTAYMELSSLRSEDTAVYYCSRETDYFFDYWGQGTLVTVSS
VL: DIQMTQSPSSLSASVGDRVTITCGASENIYGALNWYQRKQGKAPQLLIYGATNLADGVSSRFSGSGSGRDYTLTISSLQPEDVATYYCQNVLSTPWTFGQGTKLEIKR
notes: human IgG4 (S241P, L248E, Kabat); also called 3D12 VL1VH4 (var4)
- EC50 [1]: 0.32 nM
- IC50, inhibition of IL-8 secretion from HT-29 cells (EL4-NC-LIGHT cells) [2]: 0.66 nM

B2: 3D12_var13 (antibody, human IgG4, V domains shown)
VH: QVQLVQSGAEVKKPGASVKVSCKASDYTFTDSEIHWVRQAPGQGLEWIGEIDPETGGTAYNQKFKGRATLTADKSTSTAYMELSSLRSEDTAVYYCSRETDYFFDYWGQGTLVTVSS
VL: DIQMTQSPSSLSASVGDRVTITCRASENIYGALNWYQQKPGKAPKLLIYGATNLAEGVPSRFSGSGSGRDYTLTISSLQPEDVATYYCQNVLSTPWTFGQGTKLEIKR
notes: human IgG4 (S241P, L248E, Kabat); also called 3D12 VL4VH1 (var13)
- EC50 [1]: 0.24 nM
- IC50, inhibition of IL-8 secretion from HT-29 cells (EL4-NC-LIGHT cells) [2]: 0.45 nM

B3: 3D12_var16 (antibody, human IgG4, V domains shown)
VH: QVQLVQSGAEVKKPGASVKVSCKASGYTFTDSEMHWVRQAPGQGLEWMGEIDPETGGTAYAQKFQGRVTLTADKSTSTAYMELSSLRSEDTAVYYCSRETDYFFDYWGQGTLVTVSS
VL: DIQMTQSPSSLSASVGDRVTITCRASENIYGALNWYQQKPGKAPKLLIYGATNLAEGVPSRFSGSGSGRDYTLTISSLQPEDVATYYCQNVLSTPWTFGQGTKLEIKR
notes: human IgG4 (S241P, L248E, Kabat); also called 3D12 VL4VH4 (var16)
- EC50 [1]: 0.26 nM
- IC50, inhibition of IL-8 secretion from HT-29 cells (EL4-NC-LIGHT cells) [2]: 0.52 nM

B4: 3D12_var11 (antibody, human IgG4, V domains shown)
VH: QVQLVQSGAEVKKPGASVKVSCKASDYTFTDSEIHWVRQAPGQGLEWMGEIDPETGGTAYAQKFQGRVTLTADKSTSTAYMELSSLRSEDTAVYYCSRETDYFFDYWGQGTLVTVSS
VL: DIQMTQSPSSLSASVGDRVTITCGASENIYGALNWYQQKPGKAPKLLIYGATNLADGVPSRFSGSGSGRDYTLTISSLQPEDVATYYCQNVLSTPWTFGQGTKLEIKR
notes: human IgG4 (S241P, L248E, Kabat); also called 3D12 VL3VH3 (var11)
- EC50 [1]: 0.34 nM
- IC50, inhibition of IL-8 secretion from HT-29 cells (EL4-NC-LIGHT cells) [2]: 0.55 nM

B5: 3D12_var12 (antibody, human IgG4, V domains shown)
VH: QVQLVQSGAEVKKPGASVKVSCKASGYTFTDSEMHWVRQAPGQGLEWMGEIDPETGGTAYAQKFQGRVTLTADKSTSTAYMELSSLRSEDTAVYYCSRETDYFFDYWGQGTLVTVSS
VL: DIQMTQSPSSLSASVGDRVTITCGASENIYGALNWYQQKPGKAPKLLIYGATNLADGVPSRFSGSGSGRDYTLTISSLQPEDVATYYCQNVLSTPWTFGQGTKLEIKR
notes: human IgG4 (S241P, L248E, Kabat); also called 3D12 VL3VH4 (var12)
- EC50 [1]: 0.33 nM
- IC50, inhibition of IL-8 secretion from HT-29 cells (EL4-NC-LIGHT cells) [2]: 0.58 nM

B6: 3D12_var5 (antibody, human IgG4, V domains shown)
VH: QVQLVQSGAEVKKPGASVKVSCKASDYTFTDSEIHWVRQAPGQGLEWIGEIDPETGGTAYNQKFKGRATLTADKSTSTAYMELSSLRSEDTAVYYCSRETDYFFDYWGQGTLVTVSS
VL: DIQMTQSPSSLSASVGDRVTITCGASENIYGALNWYQRKQGKAPKLLIYGATNLADGVPSRFSGSGSGRDYTLTISSLQPEDVATYYCQNVLSTPWTFGQGTKLEIKR
notes: human IgG4 (S241P, L248E, Kabat); also called 3D12 VL2VH1 (var5)
- EC50 [1]: 0.33 nM
- IC50, inhibition of IL-8 secretion from HT-29 cells (EL4-NC-LIGHT cells) [2]: 0.59 nM

B7: 3D12_var15 (antibody, human IgG4, V domains shown)
VH: QVQLVQSGAEVKKPGASVKVSCKASDYTFTDSEIHWVRQAPGQGLEWMGEIDPETGGTAYAQKFQGRVTLTADKSTSTAYMELSSLRSEDTAVYYCSRETDYFFDYWGQGTLVTVSS
VL: DIQMTQSPSSLSASVGDRVTITCRASENIYGALNWYQQKPGKAPKLLIYGATNLAEGVPSRFSGSGSGRDYTLTISSLQPEDVATYYCQNVLSTPWTFGQGTKLEIKR
notes: human IgG4 (S241P, L248E, Kabat); also called 3D12 VL4VH3 (var15)
- EC50 [1]: 0.22 nM
- IC50, inhibition of IL-8 secretion from HT-29 cells (EL4-NC-LIGHT cells) [2]: 0.38 nM

B8: 3D12_var10 (antibody, human IgG4, V domains shown)
VH: QVQLVQSGAEVKKPGASVKVSCKASDYTFTDSEIHWVRQAPGQGLEWIGEIDPETGGTAYNQKFQGRVTLTADKSTSTAYMELSSLRSEDTAVYYCSRETDYFFDYWGQGTLVTVSS
VL: DIQMTQSPSSLSASVGDRVTITCGASENIYGALNWYQQKPGKAPKLLIYGATNLADGVPSRFSGSGSGRDYTLTISSLQPEDVATYYCQNVLSTPWTFGQGTKLEIKR
notes: human IgG4 (S241P, L248E, Kabat); also called 3D12 VL3VH2 (var10)
- EC50 [1]: 0.39 nM
- IC50, inhibition of IL-8 secretion from HT-29 cells (EL4-NC-LIGHT cells) [2]: 0.44 nM

B9: 3D12_var8 (antibody, human IgG4, V domains shown)
VH: QVQLVQSGAEVKKPGASVKVSCKASGYTFTDSEMHWVRQAPGQGLEWMGEIDPETGGTAYAQKFQGRVTLTADKSTSTAYMELSSLRSEDTAVYYCSRETDYFFDYWGQGTLVTVSS
VL: DIQMTQSPSSLSASVGDRVTITCGASENIYGALNWYQRKQGKAPKLLIYGATNLADGVPSRFSGSGSGRDYTLTISSLQPEDVATYYCQNVLSTPWTFGQGTKLEIKR
notes: human IgG4 (S241P, L248E, Kabat); also called 3D12 VL2VH4 (var8)
- EC50 [1]: 0.31 nM
- IC50, inhibition of IL-8 secretion from HT-29 cells (EL4-NC-LIGHT cells) [2]: 0.67 nM

B10: 3D12_var14 (antibody, human IgG4, V domains shown)
VH: QVQLVQSGAEVKKPGASVKVSCKASDYTFTDSEIHWVRQAPGQGLEWIGEIDPETGGTAYNQKFQGRVTLTADKSTSTAYMELSSLRSEDTAVYYCSRETDYFFDYWGQGTLVTVSS
VL: DIQMTQSPSSLSASVGDRVTITCRASENIYGALNWYQQKPGKAPKLLIYGATNLAEGVPSRFSGSGSGRDYTLTISSLQPEDVATYYCQNVLSTPWTFGQGTKLEIKR
notes: human IgG4 (S241P, L248E, Kabat); also called 3D12 VL4VH2 (var14)
- EC50 [1]: 0.23 nM
- IC50, inhibition of IL-8 secretion from HT-29 cells (EL4-NC-LIGHT cells) [2]: 0.45 nM

B11: 3D12_var6 (antibody, human IgG4, V domains shown)
VH: QVQLVQSGAEVKKPGASVKVSCKASDYTFTDSEIHWVRQAPGQGLEWIGEIDPETGGTAYNQKFQGRVTLTADKSTSTAYMELSSLRSEDTAVYYCSRETDYFFDYWGQGTLVTVSS
VL: DIQMTQSPSSLSASVGDRVTITCGASENIYGALNWYQRKQGKAPKLLIYGATNLADGVPSRFSGSGSGRDYTLTISSLQPEDVATYYCQNVLSTPWTFGQGTKLEIKR
notes: human IgG4 (S241P, L248E, Kabat); also called 3D12 VL2VH2 (var6)
- EC50 [1]: 0.31 nM
- IC50, inhibition of IL-8 secretion from HT-29 cells (EL4-NC-LIGHT cells) [2]: 0.47 nM

B12: 3D12_var7 (antibody, human IgG4, V domains shown)
VH: QVQLVQSGAEVKKPGASVKVSCKASDYTFTDSEIHWVRQAPGQGLEWMGEIDPETGGTAYAQKFQGRVTLTADKSTSTAYMELSSLRSEDTAVYYCSRETDYFFDYWGQGTLVTVSS
VL: DIQMTQSPSSLSASVGDRVTITCGASENIYGALNWYQRKQGKAPKLLIYGATNLADGVPSRFSGSGSGRDYTLTISSLQPEDVATYYCQNVLSTPWTFGQGTKLEIKR
notes: human IgG4 (S241P, L248E, Kabat); also called 3D12 VL2VH3 (var7)
- EC50 [1]: 0.38 nM
- IC50, inhibition of IL-8 secretion from HT-29 cells (EL4-NC-LIGHT cells) [2]: 0.54 nM

B13: 3D12_var9 (antibody, human IgG4, V domains shown)
VH: QVQLVQSGAEVKKPGASVKVSCKASDYTFTDSEIHWVRQAPGQGLEWIGEIDPETGGTAYNQKFKGRATLTADKSTSTAYMELSSLRSEDTAVYYCSRETDYFFDYWGQGTLVTVSS
VL: DIQMTQSPSSLSASVGDRVTITCGASENIYGALNWYQQKPGKAPKLLIYGATNLADGVPSRFSGSGSGRDYTLTISSLQPEDVATYYCQNVLSTPWTFGQGTKLEIKR
notes: human IgG4 (S241P, L248E, Kabat); also called 3D12 VL3VH1 (var9)
- EC50 [1]: 0.36 nM
- IC50, inhibition of IL-8 secretion from HT-29 cells (EL4-NC-LIGHT cells) [2]: 0.71 nM

B14: LTβR-Fc (Fc fusion, UniProt P36941 28-227, looked up)
chain: SQPQAVPPYASENQTCRDQEKEYYEPQHRICCSRCPPGTYVSAKCSRIRDTVCATCAENSYNEHWNYLTICQLCRPCDPVMGLEEIAPCTSKRKTQCRCQPGMFCAAWALECTHCELLSDCPPGTEAELKDEVGKGNNHCVPCKAGHFQNTSSPSARCQPHTRCENQGLVEAAPGTAQSDTTCKNPLEPLPPEMSGTMLM
modifications: biotinylated (EZ-Link NHS-LC-Biotin) in the competition assays
notes: also called LTBR-Fc; biotin-LTβR-Fc; not shown: Fc part of the bought fusion protein
- EC50 [3]: 15 nM

B15: HVEM-Fc (Fc fusion, UniProt Q92956 37-202, looked up)
chain: PALPSCKEDEYPVGSECCPKCSPGYRVKEACGELTGTVCEPCPPGTYIAHLNGLSKCLQCQMCDPAMGLRASRNCSRTENAVCGCSPGHFCIVQDGDHCAACRAYATSSPGQRVQKGGTESQDTLCQNCPPGTFSPNGTLEECQHQTKCSWLVTKAGAGTSSSHWV
modifications: biotinylated (EZ-Link NHS-LC-Biotin) in the competition assays
notes: also called biotin-HVEM-Fc; biotinylated HVEM-Fc; not shown: Fc part of the bought fusion protein
- EC50 [3]: 45 nM
